Assay results taken from the supplement of paper PMC9170038.

Test system: MS2 coat protein
Assay: apparent KD of MS2 coat protein; designed switch direction (-1 OFF switch, 1 ON switch): -1; higher = weaker reporter binding
Outline: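 Apparent KD, taken as the median over clusters for each design, was obtained by curve-fitting normalised cluster fluorescence. Designed RNA switches had been transcribed on Illumina chips by stalled E. coli RNA polymerase and titrated with SNAP-549-labelled MS2 coat protein, doubling from 0.7 or 1.5 nM to 3 µM.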

[1] = input ligand: microRNA oligo, concentration not stated
[2] = Eterna round: R95, input ligand: FMN 200 uM
[3] = Eterna round: R95, input ligand: microRNA oligo, concentration not stated
[4] = Eterna round: R95, input ligand: none

Row | Sequence | apparent KD of MS2 coat protein (input ligand: FMN 200 uM) [nM] | apparent KD of MS2 coat protein (input ligand: none) [nM] | further results
1 | GUACUGAAGCAUAGCUUUAGUCGUACAUGAGGAUCACCCAUGUAGGAUAUGGUAGGCAUAGCUUACUAGAAGGAUAGAGUGAUC [Mat - Exclusion NG 3 - Mod of JL - D72] (Eterna round: R96, puzzle: Exclusion NG 3) | 440 | 137 | apparent KD of MS2 coat protein [1]: 71.6 nM
2 | GGCCUUCCGCGAGCUUUUUACAUGAGGAUCACCCAUGUGGUUUUUAGUCUUAUCCGGCCGGCCGUGUGGCCGGCCGG [-32.9, -53.8, A 12%] (Eterna round: R97, puzzle: Sensor, turn-off variant 1) | 26.1 | 30.4 | –
3 | GAAAAGGUAGAGGAUAUUUCAGAUCAAAGCUGCAAAGAAGGCUGCACAUGAGGAUCACCCAUGUGGUCAACAAA [Mod of Quesina 13 - Jieux - Exclusion 6] (Eterna round: R97, puzzle: Exclusion 6) | 66.1 | 21.1 | –
4 | UGUUGUUCAGGAUAUGGUGUGUUUUACAUGAGGAUCACCCAUGUGGGUCCUGGUUUGGCGUCAGAAGGGAAUGUUG [salish99_ex5_r4_117] (Eterna round: R97, puzzle: Exclusion 5) | 788 | 1040 | –
5 | GCGUACUGAGGAUAUACAUGAGGAUCACCCAUGUGAAGAAGAAAGUAGUGAUGGUUGGGUAGAAGGCAGUAUGC [JR_Ex3_Sub064] (Eterna round: R97, puzzle: Exclusion 3) | 103 | 98.5 | –
6 | GAGGAGCAAGGAUAUACGAGGAGAGGGAAGAGAGGAGAGAGACAUGAGGAUCACCCAUGUAGAAGGUGCAAGGG [JR_Exclu2_Sub093] (puzzle: Exclusion 2) | – | – | apparent KD of MS2 coat protein [2]: 116 nM; apparent KD of MS2 coat protein [3]: 131 nM; apparent KD of MS2 coat protein [4]: 180 nM
7 | UCGAUGUGAGGAUAUAACAGGACGAACUCUUAAUAGUACGGUUAGAAGGCACAUGAGGAUCACCCAUGUGACGA [EX4 B.27] (Eterna round: R97, puzzle: Exclusion 4) | 40.1 | 17.7 | –
8 | AGCAUGCUAGGAUAUACGGGACAUUAGGGUUCGUUGUGUGGACAUGAGGAUCACCCAUGUAGAAGGAGCGUGCA [Mat - Exclusion 2 - Mod of Hyphema - D91] (puzzle: Exclusion 2) | – | – | apparent KD of MS2 coat protein [3]: 73.1 nM
9 | UCUAUUUUGCGAGGAUAUCGACCAUUCCUCUUUACAUGAGGAUCACCCAUGUUCUUUUUCUACAACGAGAAGGCGCUCAUAGUU [JR_ExcNG2_Sub062] (Eterna round: R96, puzzle: Exclusion NG 2) | 73.5 | 61.6 | apparent KD of MS2 coat protein [1]: 67.7 nM
10 | UAUAUAUAGUAAGGAUAUGUAUAUAUUUAAUAAACAGAAGGUACUGACAUGAGGAUCACCCAUGUUUUAGUGUGGGCAUGUAGA [JMF's solution 63] (Eterna round: R96, puzzle: Exclusion NG 1) | – | – | apparent KD of MS2 coat protein [1]: 59.9 nM
11 | AAUUCCGUAGGAUAUGGGAACCGGGACAUGAGGAUCACCCAUGUGAAGGAUGUCCCAACACCAGAAGGACGCAGCA [EX5 A.14] (Eterna round: R97, puzzle: Exclusion 5) | 47 | 25.9 | –
12 | UAUUUAUAUGAAGGAUAUACUUAACAUGAGGAUCACCCAUGUGGUGUUGUGAGUGAGUGAGUUUAGUAGAAGGUCAAUUCUUUU [JMF's solution 96] (Eterna round: R96, puzzle: Exclusion NG 2) | 893 | 448 | apparent KD of MS2 coat protein [1]: 415 nM
13 | GCAUGUUGGUAGGAUAUGCAGCGAAAACCGCUAGUAGAAGGAUUGACAUGAGGAUCACCCAUGUGAACCGAAGG [Esesbece] (Eterna round: R97, puzzle: Exclusion 6) | 139 | 36.6 | –
14 | GAAAAGUGAGGAUAUGGUAAAAGAAAAAGAAGAAGAAAACUCCAGAAGGCACAUGAGGAUCACCCAUGUGAAAG [salish99_ex4_r3_007] (puzzle: Exclusion 4) | – | – | apparent KD of MS2 coat protein [2]: 22.2 nM; apparent KD of MS2 coat protein [3]: 17.4 nM; apparent KD of MS2 coat protein [4]: 15.7 nM
15 | CCGGAAAUGAAGGAUAUAGGUGUCGAUAGACACCUAGAAGGUCAUACAUGAGGAUCACCCAUGUGUCCUACCGG [Fiskers Ex 6 - 7] (puzzle: Exclusion 6) | – | – | apparent KD of MS2 coat protein [3]: 13.9 nM
16 | ACAAGCUUUUUGCAAUUUAGUUUUGUUGCUUCGUAGGUAACAUGAGGAUCACCCAUGUAAGAGUGAUGUCGUCUUAU [JR_SV3TOV2_Sub084] (puzzle: Sensor v3, turn-off variant 2) | – | – | apparent KD of MS2 coat protein [2]: 520 nM; apparent KD of MS2 coat protein [3]: 141 nM; apparent KD of MS2 coat protein [4]: 609 nM
17 | UAUAUAUAGUAAGGAUAUGUAAUUACUUUAUAAACAGAAGGUACUGACAUGAGGAUCACCCAUGUUUUAGUGUGGGCAUGUAGA [JMF's solution 37] (Eterna round: R96, puzzle: Exclusion NG 1) | – | – | apparent KD of MS2 coat protein [1]: 70.1 nM
18 | UGCGGGCUUUUGAGACCUCACAUGAGGAUCACCCAUGUGCUUGUCUUGUGGGUCGGUCGGUCGUUGGCUGGCUGGCG [Sensor-V1 #95] (Eterna round: R97, puzzle: Sensor, turn-off variant 1) | 20 | 19.3 | –

Row | Sequence | apparent KD of MS2 coat protein (input ligand: FMN 200 uM) [nM] | apparent KD of MS2 coat protein (input ligand: none) [nM] | further results
19 | AUAUUGUGAGGAUAUGAAGUUAGUAUCGAAAGAUACUAAGUUCAGAAGGCACAUGAGGAUCACCCAUGUUUCUC [Long static hairpin v4] (Eterna round: R97, puzzle: Exclusion 4) | 710 | 71.5 | –
20 | AAUCCACAUGAGGAUCACCCAUGUCAGGAUAUCGCGCGCGCGUUUUCGGUCUUGCGCGCGAGAAGGGACGGCUG (puzzle: Exclusion 1) | – | – | apparent KD of MS2 coat protein [3]: 22.9 nM
21 | UAUUAGCUUGCGAGAUCCGACAUGAGGAUCACCCAUGUGCUCGUCUUAUAUGGGAGGGAGGGAAAACCCUCCCUCCC [mod-Eli] (Eterna round: R97, puzzle: Sensor, turn-off variant 1) | 23.8 | 25.4 | –
22 | UUAUUAAAUGUAGGAUAUGCAUAUUAUUAUUAUGCAGAAGGACAUGAGGAUCACCCAUGUAUAUUAUUAUUAUUUAUUAUAUAU [Title] (Eterna round: R96, puzzle: Exclusion NG 1) | – | – | apparent KD of MS2 coat protein [1]: 36.1 nM
23 | GUUACACAUGAGGAUCACCCAUGUAAGGAUAUGCUGCGGUCGCGCUGACGUGACUGCAGCAGAAGGUACAAAUG [Mat - Mod of JL D56] (puzzle: Exclusion 1) | – | – | apparent KD of MS2 coat protein [3]: 59.3 nM
24 | UAUGGUUAAGUCAGGAUAUACUCAUAGAAGUCUGUGUAGAAGGGACAUGAGGAUCACCCAUGUAUGGUAGUGUU [Ex4 #47] (Eterna round: R97, puzzle: Brourd's mod of Exclusion 4) | 151 | 159 | –
25 | GGGUGCAGGCUGAGGUCCUACAUGAGGAUCACCCAUGUGGUCCGGUGACGUGAGUCACCGGACUUAGCUCGUCUUGU [salish99_S_TOV1_R5_009] (Eterna round: R97, puzzle: Sensor, turn-off variant 1) | 82 | 97.8 | –
26 | ACAGUACUGCAAGGAUAUCGUUCUAGUUUAUUACGAGAAGGUGCUUUAGUUAUUUCUUUGUGUUGACAUGAGGAUCACCCAUGU [JR_ExcNG1_Sub055] (Eterna round: R96, puzzle: Exclusion NG 1) | 18.9 | 26.4 | apparent KD of MS2 coat protein [1]: 17.9 nM
27 | AGAUCACAUGAGGAUCACCCAUGUCAGGAUAUCAUCAUUGAAGCUGCGGCUUCAAUGAUGAGAAGGGACAUAAU [E1/2-B3] (Eterna round: R97, puzzle: Exclusion 1) | 105 | 412 | –
28 | UAUAUGUUAGGAUAUUAGUAGUAAAUAAAUAAAAUUAUUACUGAGAAGGGACAUGAGGAUCACCCAUGUACCUC [Salish 062 v33] (Eterna round: R97, puzzle: Exclusion 4) | 21.9 | 12.7 | –
29 | CCCAGUUAUUCAGGAUAUUGUACAUGAGGAUCACCCAUGUAAUAAAUGAGGAUUUCGGGUGUCUACAAGAAGGGAAGGAUAGGC [Ostracism 19 - Jieux - Exclusion NG 2] (Eterna round: R96, puzzle: Exclusion NG 2) | 26.5 | 29.3 | apparent KD of MS2 coat protein [1]: 23.8 nM
30 | GAAAAGGUAGGAUAUACGAAAAAUAAGGGUAGAAAAAAAACACAUGAGGAUCACCCAUGUAGAAGGACCAAAAG [salish99_ex2_r3_082] (puzzle: Exclusion 2) | – | – | apparent KD of MS2 coat protein [2]: 65.7 nM; apparent KD of MS2 coat protein [3]: 27.8 nM; apparent KD of MS2 coat protein [4]: 33 nM
31 | UUAUAAAGUGUGAGGAUAUGCUGGUCCUUAGAUCAGCAGAAGGCACAUGAGGAUCACCCAUGUAAUAUAUUUUU [Mat - Exclusion 4 - JL Mod - D42] (puzzle: Brourd's mod of Exclusion 4) | – | – | apparent KD of MS2 coat protein [3]: 33.9 nM
32 | UUUUUAUAUGAAGGAUAUACUUAACAUGAGGAUCACCCAUGUGGUGUUGUGAGUGAGUGAGUUUAGUAGAAGGUCAAUUAUAUU [JMF's solution 13] (Eterna round: R96, puzzle: Exclusion NG 2) | 574 | 350 | apparent KD of MS2 coat protein [1]: 316 nM
33 | AGUCGGCGAGGAUAUACAUGAGGAUCACCCAUGUGAGAGAAUAAAGUGAGUUAGACAAGUAGAAGGCGCUGACA [JL Lego Mod 10] (Eterna round: R96, puzzle: Exclusion 3) | 356 | 48.1 | apparent KD of MS2 coat protein [1]: 40.9 nM
34 | CUCUAGUCAGGAUAUCACGUUUACCGUGCACUCACAAAGCCUGAGAAGGGACUUGAGGAUCACCCAAGUGGGAA [Reedbequ] (Eterna round: R97, puzzle: Exclusion 4) | 211 | 231 | –
35 | GGCGCCUGAGGAUAUCAGUCUGGAUCAGAAAAGAUCCUGACUGAGAAGGCACAUGAGGAUCACCCAUGUUCGCC [Mat - Exclusion 4 - Eli Mod - D51] (Eterna round: R97, puzzle: Exclusion 4) | 14.5 | 14.7 | –
